Sequences and labels used below:
B1: OR4K15 (parent)
chain: GUUAACGGUCAUAGGCCAUGGAAACUAGGAGCACCAUUUCGCUGCCAGUGAAGAAAUGAACAAAGAAAAUCUGGGCCAGGCAGGCAUCAAAAGAAAUAGUCUUGCGCUCAACCAGAAAGUCUGUAAUCAUUUUAAGGGUA

Among the data in the RNAGym collection of RNA variant scans (doi:10.7554/elife.90254) are self-cleavage values, retold here.

This data set covers variants of B1. Kind of data set: self-cleavage, relative activity (ratio to wild type); higher = more cleavage; in vitro, sequencing; the parent is a self-cleaving ribozyme.
In the case of GUUAACGGUCAUAGGCCAGGGAAACUAGGAGCACCAUUUCGCUGCCAGUGAAGAAAUGAACAAAGAAAAUCUGGGCCAGGCAGGCAUCAAAAGAAAUAGCCUUGCGCUCAACCAGAAAGUCUGUAAUCAUUUUAAGGGUA [U19G U100C], the self-cleavage turned out to be 2.09.

For GUUAACGGUCAUAGGCCAGGGAAACUAGGAGCACCAUUUCGCUGCCAGUGAAGAAAUGAACAAAGAAAAUCUGGGCCAGGCAGGCAUCAAAAGAAAUAGACUUGCGCUCAACCAGAAAGUCUGUAAUCAUUUUAAGGGUA [U19G U100A], the self-cleavage stood at 0.74. In the case of GUUAACGGUCAUAGGCCAGGGAAACUAGGAGCACCAUUUCGCUGCCAGUGAAGAAAUGAACAAAGAAAAUCUGGGCCAGGCAGGCAUCAAAAGGAAUAGUCUUGCGCUCAACCAGAAAGUCUGUAAUCAUUUUAAGGGUA [U19G A94G], the self-cleavage was 1.02.

Regarding GUUAACGGUCAUAGGCCAGGGAAACUAGGAGCACCAUUUCGCUGCCAGUGAAGAAAUGAACAAAGAAAAUCUGGGCCAGGCAGGCAUCAAAAGUAAUAGUCUUGCGCUCAACCAGAAAGUCUGUAAUCAUUUUAAGGGUA [U19G A94U], the self-cleavage was 1.64. In the case of GUUAACGGUCAUAGGCCAGGGAAACUAGGAGCACCAUUUCGCUGCCAGUGAAGAAAUGAACAAAGAAAAUCUGGGCCAGGCAGGCUUCAAAAGAAAUAGUCUUGCGCUCAACCAGAAAGUCUGUAAUCAUUUUAAGGGUA [U19G A86U] it was 0.68; in that of GUUAACGGUCAUAGGCCAGGGAAACUAGGAGCACCAUUUCGCUGCCAGUGUAGAAAUGAACAAAGAAAAUCUGGGCCAGGCAGGCAUCAAAAGAAAUAGUCUUGCGCUCAACCAGAAAGUCUGUAAUCAUUUUAAGGGUA [U19G A51U], 1.46; in that of GUUAACGGUCAUAGGCCAGGGAAACUAGGAGCACCAUUUCGCUGCCAGUGGAGAAAUGAACAAAGAAAAUCUGGGCCAGGCAGGCAUCAAAAGAAAUAGUCUUGCGCUCAACCAGAAAGUCUGUAAUCAUUUUAAGGGUA [U19G A51G], 0.33. Turning to GUUAACGGUCAUAGGCCAUAGAAACUAGGAGCACCAUUUCGCUGCCAGUGAAGAAAUGGACAAAGAAAAUCUGGGCCAGGCAGGCAUCAAAAGAAAUAGUCUUGCGCUCAACCAGAAAGUCUGUAAUCAUUUUAAGGGUA [G20A A59G], the self-cleavage stood at 1.19. GUUAACGGUCAUAGGCCAUAGAAACUAGGAGCACCAUUUCGCUGCCAGUGAAGAAAUGUACAAAGAAAAUCUGGGCCAGGCAGGCAUCAAAAGAAAUAGUCUUGCGCUCAACCAGAAAGUCUGUAAUCAUUUUAAGGGUA [G20A A59U]: the self-cleavage was 0.83. The same measure for GUUAACGGUCAUAGGCCAGGGAAACUAGGAGCACCAUUUCGCUGCCAGUGAAGAAAUGAACAAAGAAAAUCUGGGCCAGGCAGGCAUCAAAAGAAAUAGUCUUGCGCUCAGCCAGAAAGUCUGUAAUCAUUUUAAGGGUA [U19G A111G]: 0.04; for GUUAACGGUCAUAGGCCAUAGAAACUAGGAGCACCAUUUCGCUGCCAGUGAAGGAAUGAACAAAGAAAAUCUGGGCCAGGCAGGCAUCAAAAGAAAUAGUCUUGCGCUCAACCAGAAAGUCUGUAAUCAUUUUAAGGGUA [G20A A54G]: 1.28; for GUUAACGGUCAUAGGCCAGGGAAACUAGGAGCACCAUUUCGCUGCCAGUGAAGAAAUGAACAAAGAAAAUCUGGGCCAGGCAGGCAUCAAAAGAAAUAGUCUUGCGCUCAACCUGAAAGUCUGUAAUCAUUUUAAGGGUA [U19G A114U]: 0.1. On to GUUAACGGUCAUAGGCCAGGGAAACUAGGAGCACCAUUUCGCUGCCAGUGAAGAAAUGAACAAAGAAAAUCUGGGCCUGGCAGGCAUCAAAAGAAAUAGUCUUGCGCUCAACCAGAAAGUCUGUAAUCAUUUUAAGGGUA [U19G A78U], for which the self-cleavage amounted to 0.89.

Turning to GUUAACGGUCAUAGGCCAGGGAAACUAGGAGCACCAUUUCGCUGCCAGUGAAGAAAUGAACAAAGAAAAUCUGGGCCCGGCAGGCAUCAAAAGAAAUAGUCUUGCGCUCAACCAGAAAGUCUGUAAUCAUUUUAAGGGUA [U19G A78C], the self-cleavage was 0.39. For the variant GUUAACGGUCAUAGGCCAGGGAAACUAGGAGCACCAUUUCGCUGCCAGUGAAGAAAUGAACAAAGAAAAUCUGGGCCAGGCAGGCAUCAAGAGAAAUAGUCUUGCGCUCAACCAGAAAGUCUGUAAUCAUUUUAAGGGUA [U19G A91G], the self-cleavage came out at 1.28. The same measure for GUUAACGGUCAUAGGCCAUAGAAACUAGGAGCACCAUUUCGCUGCCAGUGAUGAAAUGAACAAAGAAAAUCUGGGCCAGGCAGGCAUCAAAAGAAAUAGUCUUGCGCUCAACCAGAAAGUCUGUAAUCAUUUUAAGGGUA [G20A A52U]: 1.8; for GUUAACGGUCAUAGGCCAGGGAAACUACGAGCACCAUUUCGCUGCCAGUGAAGAAAUGAACAAAGAAAAUCUGGGCCAGGCAGGCAUCAAAAGAAAUAGUCUUGCGCUCAACCAGAAAGUCUGUAAUCAUUUUAAGGGUA [U19G G28C]: 0.48. For the variant GUUAACGGUCAUAGGCCAGGGAAACUAGGAGCACCAUUUCGCUGCCAGUGAAGAAAUGAGCAAAGAAAAUCUGGGCCAGGCAGGCAUCAAAAGAAAUAGUCUUGCGCUCAACCAGAAAGUCUGUAAUCAUUUUAAGGGUA [U19G A60G], the self-cleavage amounted to 1.61. On to GUUAACGGUCAUAGGCCAGGGAAACUAGGAGCACCAUUUCGCUGCCUGUGAAGAAAUGAACAAAGAAAAUCUGGGCCAGGCAGGCAUCAAAAGAAAUAGUCUUGCGCUCAACCAGAAAGUCUGUAAUCAUUUUAAGGGUA [U19G A47U], for which the self-cleavage was found to be 1.08.

As for GUUAACGGUCAUAGGCCAGGGAAACUAGGAGCACCAUUUAGCUGCCAGUGAAGAAAUGAACAAAGAAAAUCUGGGCCAGGCAGGCAUCAAAAGAAAUAGUCUUGCGCUCAACCAGAAAGUCUGUAAUCAUUUUAAGGGUA [U19G C40A], the self-cleavage amounted to 1.04.

In the case of GUUAACGGUCAUAGGCCAGGGAAACUAGGAGCACCAUUUCGCUGCCAGUGAAGAAAUGAACAAAGAAAAUCUGGGCCAGGCAGGCAUCAAAAGAAAUAGUCUUGCGCUCAACCAGAAAGUCUGUAGUCAUUUUAAGGGUA [U19G A126G], the self-cleavage came to 1.18.
